In this assay the target is full-length human TRPC3 (human) (UniProt Q13507). The assay can be described thus: cryo-EM structure; purified TRPC3 at 5 mg/mL in 20 mM Tris 8.0, 500 mM NaCl, 1 mM EDTA, 0.1% digitonin; single-particle reconstruction with C4 symmetry, 3.3 Å.

One may read the stoichiometry N as the number of molecules, sites or subunits per partner or assembly.

“full-length human TRPC3 (from UniProt Q13507 1-921) (natural protein)” returned a stoichiometry N of 4.

For the origin of these results see paper PMC5967863.
